According to patent US20060257938A1, “Method of screening for drugs that block ligand binding to a lipid binding protein” (priority 2005, published 2006):
Substitutions are numbered along the chain they refer to. Several values for one entry are separate records, joined by “and”; a condition that tells them apart may be missing. Identical values can stand only once.

B1: 78I1, 72A (protein, listed as Rattus norvegicus)
chain: AFDGTWKVDRNENYEKFMEKMGINVVKRKLGAHDNLKLTITQEGNKFTVKESSNFRNIDVVFELGVDFAYSAADGTEITGTWTMEGNKLVGKFKRVDNGKELIAVREISGNELIQTYTYEGVEAKRIFKKE
modifications: PEPTIDE (1)...(131) wild-type rat intestinal fatty acid binding protein
B2: 104I1, 72A (protein, listed as Rattus norvegicus)
chain: B1 chain with I78L, A104I
modifications: PEPTIDE (1)...(131) wild-type rat intestinal fatty acid binding protein
B3: 104N1, 72A (protein, listed as Rattus norvegicus)
chain: B1 chain with I78L, A104N
modifications: PEPTIDE (1)...(131) wild-type rat intestinal fatty acid binding protein
B4: 82A, 72A (protein, listed as Rattus norvegicus)
chain: B1 chain with I78L, W82A
modifications: PEPTIDE (1)...(131) wild-type rat intestinal fatty acid binding protein
B5: 104L1, 72A (protein, listed as Rattus norvegicus)
chain: B1 chain with I78L, A104L
modifications: PEPTIDE (1)...(131) wild-type rat intestinal fatty acid binding protein
B6: 82V1, 72A (protein, listed as Rattus norvegicus)
chain: B1 chain with I78L, W82V
modifications: PEPTIDE (1)...(131) wild-type rat intestinal fatty acid binding protein
B7: 93L, 72A (protein, listed as Rattus norvegicus)
chain: B1 chain with I78L, F93L
modifications: PEPTIDE (1)...(131) wild-type rat intestinal fatty acid binding protein
B8: 82Y2, 72A (protein, listed as Rattus norvegicus)
chain: B1 chain with I78L, W82Y
modifications: PEPTIDE (1)...(131) wild-type rat intestinal fatty acid binding protein
B9: 82A1, 72A (protein, listed as Rattus norvegicus)
chain: B1 chain with I78L, W82A
modifications: PEPTIDE (1)...(131) wild-type rat intestinal fatty acid binding protein
B10: 82M1, 72A (protein, listed as Rattus norvegicus)
chain: B1 chain with I78L, W82M
modifications: PEPTIDE (1)...(131) wild-type rat intestinal fatty acid binding protein
B11: 82I3, 72A (protein, listed as Rattus norvegicus)
chain: B1 chain with I78L, W82I
modifications: PEPTIDE (1)...(131) wild-type rat intestinal fatty acid binding protein
B12: 91A, 72A (protein, listed as Rattus norvegicus)
chain: B1 chain with I78L, G91A
modifications: PEPTIDE (1)...(131) wild-type rat intestinal fatty acid binding protein
B13: 78T1, 72A (protein, listed as Rattus norvegicus)
chain: B1 chain with I78T
modifications: PEPTIDE (1)...(131) wild-type rat intestinal fatty acid binding protein
B14: 78W1, 72A (protein, listed as Rattus norvegicus)
chain: B1 chain with I78W
modifications: PEPTIDE (1)...(131) wild-type rat intestinal fatty acid binding protein
B15: 93M, 72A (protein, listed as Rattus norvegicus)
chain: B1 chain with I78L, F93M
modifications: PEPTIDE (1)...(131) wild-type rat intestinal fatty acid binding protein
B16: 78M1, 72A (protein, listed as Rattus norvegicus)
chain: B1 chain with I78M
modifications: PEPTIDE (1)...(131) wild-type rat intestinal fatty acid binding protein
B17: 82F1, 72A (protein, listed as Rattus norvegicus)
chain: B1 chain with I78L, W82F
modifications: PEPTIDE (1)...(131) wild-type rat intestinal fatty acid binding protein

Test: Probe fluorescence ratio response to oleic acid relative to ADIFAB2
Type: binding
Conditions: response relative to ADIFAB2
How it was run: (§1)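 Each fatty acid's response was expressed relative to ADIFAB2, the rI-FABP-L72A probe, as ΔR/ΔRreference. ΔR is the change in the background-corrected two-wavelength intensity ratio R=Fλ1/Fλ2 from its analyte-free baseline R0. Emission was read near about 420-480 nm for unbound and about 495-580 nm for FFA-bound probe.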

Going from B1 to B2, the “DR/DR OA” value falls from 0.93 to 0.31.

Compared with B3, B4 is higher in “DR/DR OA” value: 0.71 for the first, 1.53 for the second.

Compared with B5, B6 is higher in “DR/DR OA” value: 0.48 for the first, 0.65 for the second.

Compared with B8, B9 is lower in “DR/DR OA” value: 1.53 for the first, 0.80 for the second.

Compared with B10, B11 is lower in “DR/DR OA” value: 0.92 for the first, 0.54 for the second.

Compared with B12, B13 is higher in “DR/DR OA” value: 0.85 for the first, 1.08 for the second.

Compared with B14, B15 is higher in “DR/DR OA” value: 0.53 for the first, 1.24 for the second.

Compared with B16, B17 is lower in “DR/DR OA” value: 1.44 for the first, 0.78 for the second.

With B7 the “DR/DR OA” value was 1.05 and 0.770.

Test: Probe fluorescence ratio response to arachidonic acid relative to ADIFAB2
Type: binding
Conditions: Arachidonic acid; response relative to ADIFAB2
How it was run: as §1

Going from B1 to B4, the “DR/DR AA” value rises from 1.27 to 1.55.

First: B6
Second: B7
The “DR/DR AA” value of the first is higher: 0.86 for the first, 0.36 for the second.

Going from B8 to B9, the “DR/DR AA” value rises from 0.65 to 0.73.

Going from B10 to B11, the “DR/DR AA” value falls from 0.97 to 0.67.

Compared with B12, B13 is higher in “DR/DR AA” value: 0.86 for the first, 1.07 for the second.

First: B14
Second: B15
The “DR/DR AA” value of the first is lower: 0.49 for the first, 0.93 for the second.

Compared with B16, B17 is lower in “DR/DR AA” value: 1.39 for the first, 0.68 for the second.

Same assay, conditions: arachidonic acid; response relative to ADIFAB2

Compared with B2, B3 is higher in “DR/DR AA” value: 0.28 for the first, 1.14 for the second.

First: B5
Second: B7
The “DR/DR AA” value of the first is lower: 0.38 for the first, 0.680 for the second.

Test: Probe fluorescence ratio response to linoleic acid relative to ADIFAB2
Type: binding
Conditions: response relative to ADIFAB2
How it was run: as §1

Compared with B1, B2 is lower in “DR/DR LA” value: 1.11 for the first, 0.30 for the second.

Compared with B3, B4 is higher in “DR/DR LA” value: 0.67 for the first, 1.67 for the second.

First: B5
Second: B6
The “DR/DR LA” value of the first is lower: 0.39 for the first, 0.74 for the second.

Compared with B8, B9 is lower in “DR/DR LA” value: 1.53 for the first, 0.78 for the second.

First: B10
Second: B11
The “DR/DR LA” value of the first is higher: 0.94 for the first, 0.52 for the second.

Compared with B12, B13 is higher in “DR/DR LA” value: 0.83 for the first, 1.25 for the second.

Compared with B14, B15 is higher in “DR/DR LA” value: 0.57 for the first, 1.28 for the second.

Going from B16 to B17, the “DR/DR LA” value falls from 1.44 to 1.08.

In the case of B7, the “DR/DR LA” value is reported as 1.03 and 0.670.

Test: Probe fluorescence ratio response to linolenic acid relative to ADIFAB2
Type: binding
Conditions: response relative to ADIFAB2
How it was run: as §1

First: B1
Second: B2
The “DR/DR LNA” value of the first is higher: 1.66 for the first, 0.30 for the second.

First: B3
Second: B4
The “DR/DR LNA” value of the first is lower: 1.06 for the first, 1.56 for the second.

Compared with B5, B6 is higher in “DR/DR LNA” value: 0.42 for the first, 0.76 for the second.

Going from B8 to B9, the “DR/DR LNA” value falls from 1.57 to 0.66.

First: B10
Second: B11
The “DR/DR LNA” value of the first is higher: 0.75 for the first, 0.45 for the second.

First: B12
Second: B13
The “DR/DR LNA” value of the first is lower: 0.91 for the first, 1.20 for the second.

Going from B14 to B15, the “DR/DR LNA” value rises from 0.53 to 1.19.

Going from B16 to B17, the “DR/DR LNA” value falls from 1.50 to 0.76.

For B7, the “DR/DR LNA” value was 0.81 and 0.680.

Test: Probe fluorescence ratio response to palmitic acid relative to ADIFAB2
Type: binding
Conditions: response relative to ADIFAB2
How it was run: as §1

Compared with B1, B2 is lower in “DR/DR PA” value: 0.52 for the first, 0.23 for the second.

Compared with B3, B4 is higher in “DR/DR PA” value: 0.52 for the first, 0.84 for the second.

Going from B5 to B6, the “DR/DR PA” value rises from 0.31 to 0.48.

Compared with B8, B9 is lower in “DR/DR PA” value: 0.88 for the first, 0.26 for the second.

First: B10
Second: B11
The “DR/DR PA” value of the first is higher: 0.54 for the first, 0.36 for the second.

Compared with B12, B13 is lower in “DR/DR PA” value: 0.80 for the first, 0.54 for the second.

Going from B14 to B15, the “DR/DR PA” value rises from 0.29 to 0.75.

Going from B16 to B17, the “DR/DR PA” value falls from 0.92 to 0.41.

In the case of B7, the “DR/DR PA” value is reported as 0.62 and 0.560.
